The values that follow are results of earlier work, collected in article PMC5177622, “Multivalent Histone and DNA Engagement by a PHD/BRD/PWWP Triple Reader Cassette Recruits ZMYND8 to K14ac-Rich Chromatin” (Cell Reports, 2016).

Read-outs that look alike come from different tables or passages of the source.

In the data set the target is T1, human BAZ2B (UniProt: Q9UIF8 residues 2054-2168) WT (Homo sapiens, UniProt Q9UIF8).
T1 construct: residues 2054- 2168; made in house
T1 sequence (Q9UIF8 2054-2168): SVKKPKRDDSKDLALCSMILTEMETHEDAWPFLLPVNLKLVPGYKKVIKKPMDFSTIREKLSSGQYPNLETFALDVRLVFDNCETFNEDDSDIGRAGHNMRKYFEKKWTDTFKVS
To be noted: ITC. How it is done:
Titrations were carried out in 20 mM HEPES pH 7.5 (at 25 °C), 200 mM NaCl and 15 °C while stirring at 1000 rpm. Peptides were titrated into protein solutions. Data related to Fi gur e 5. [P] [Pep] KD ΔHobs TΔS ΔG B AZ 2 B Peptide (μM) (μM) (μM) ...
(In general: In ITC the heat of successive injections is recorded.)

Where [1] appears, read: ref Filippakopoulos et al., 2012.

Usually Kd stands for the concentration at which binding is half-saturated. “H3(9-19)K14ac: histone H3 residues 9-19 peptide bearing K14ac; data from Filippakopoulos et al., 2012”: under setting [1], the Kd was 7.6 ± 0.3 µM, the N is 0.99 ± 0.007, the TΔS is reported as -2.27 kcal/mol and the ΔG is -6.64 kcal/mol. Moreover, the ΔHobs under setting [1] is on record as -8.91 ± 0.08 kcal/mol.
Turning to “H3(5-25)K14ac: histone H3 residues 5-25 peptide bearing K14ac; data from Philpott et al., 2011”, where the note is “ref Philpott et al., 2011”, the Kd is 6.3 ± 0.2 µM, the N is 1.00 ± 0.007, the TΔS was -0.12 kcal/mol and the ΔG is -6.74 kcal/mol. In addition, the ΔHobs (ref Philpott et al., 2011) is -6.86 ± 0.06 kcal/mol.
